Measured values: patent publication US20200317768A1 (published 2020)
Substitutions are numbered along the chain they refer to. Each block holds one binder with its values, some of them ahead of it.

Experiments:
[1] = target: T1, cynomolgus monkey FcγRIIa3 extracellular domain, His-tagged (cynomolgus monkey); assay: SPR (BIACORE), captured antibody, FcgR as analyte
T1 construct: also called cyno FcγRIIa3; cynoFcgRIIa3; not shown: C-terminal His-tag
T1 chain: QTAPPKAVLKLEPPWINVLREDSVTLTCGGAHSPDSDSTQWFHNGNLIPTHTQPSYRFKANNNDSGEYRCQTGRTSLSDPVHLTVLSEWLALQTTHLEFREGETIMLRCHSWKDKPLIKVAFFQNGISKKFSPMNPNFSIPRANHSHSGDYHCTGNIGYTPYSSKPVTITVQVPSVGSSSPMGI

[2] = target: T2, human FcγRIIaH extracellular domain, His-tagged (human, UniProt P12318 34-217); assay: SPR (BIACORE); KD of SG1 divided by KD of variant;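 note: relative to parent M103205H795-SG1 carrying the SG1 human heavy chain constant region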
T2 construct: also called human FcγRIIa (type H); FcgRIIaH; not shown: C-terminal His-tag
T2 sequence: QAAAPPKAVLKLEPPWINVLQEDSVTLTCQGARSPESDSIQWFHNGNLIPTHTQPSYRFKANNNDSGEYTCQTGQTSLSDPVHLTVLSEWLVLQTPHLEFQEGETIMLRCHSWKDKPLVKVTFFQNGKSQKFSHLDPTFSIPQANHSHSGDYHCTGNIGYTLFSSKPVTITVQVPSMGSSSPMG
Protocol: (§1) The kinetic analysis of interactions between these antibodies and FcγR was carried out using BIACORE® T200 or BIACORE® 4000 (GE Healthcare). HBS-EP+ (GE Healthcare) was used as the running buffer, and the measurement temperature was set to 25° C. A chip produced by immobilizing Protein A. Protein A/G or mouse anti-human IgG kappa light chain (BD Biosciences) onto a Series S Sensor Chip CM4 or CM5 (GE Healthcare) by the amine-coupling method was used. […] After the measurement, the antibody captured on the chip was washed off by allowing reaction with 10 mM glycine-HCl, pH1.5 and 25 mM NaOH so that the chip was regenerated and used repeatedly. The sensorgrams obtained as measurement results were analyzed by the 1:1 Langmuir binding model using the BIACORE® Evaluation Software to calculate the binding rate constant ka (L/mol/s) and dissociation rate constant kd (l/s), and the dissociation constant KD (mol/L) was calculated from these values. […] Regarding such interactions, KD values were calculated using the following 1:1 binding model described in BIACORE® T100 Software Handbook BR1006-48 Edition AE.

[3] = target: T3, human FcγRIIIaV extracellular domain, His-tagged (human, UniProt P08637 17-208); assay: SPR (BIACORE); KD of SG1 divided by KD of variant;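 note: relative to parent M103205H795-SG1 carrying the SG1 human heavy chain constant region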
T3 construct: also called FcgRIIIaV; not shown: C-terminal His-tag
Protocol: as §1

[4] = target: T4, cynomolgus monkey FcγRIIb extracellular domain, His-tagged (cynomolgus monkey); assay: SPR (BIACORE); KD of SG1 divided by KD of variant;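 note: relative to parent M103205H795-SG1 carrying the SG1 human heavy chain constant region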
T4 construct: also called cyno FcγRIIb; cynoFcγRIIb; not shown: C-terminal His-tag
T4 chain: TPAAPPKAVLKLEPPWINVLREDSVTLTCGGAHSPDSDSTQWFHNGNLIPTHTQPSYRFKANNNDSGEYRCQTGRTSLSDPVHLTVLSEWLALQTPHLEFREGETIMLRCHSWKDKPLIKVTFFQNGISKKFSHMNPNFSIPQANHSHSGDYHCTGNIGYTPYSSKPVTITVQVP
Protocol: as §1

[5] = target: T5, human FcγRIIb extracellular domain, His-tagged (human, UniProt P31994 43-217); assay: SPR (BIACORE); KD of SG1 divided by KD of variant;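 note: relative to parent M103205H795-SG1 carrying the SG1 human heavy chain constant region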
T5 construct: also called FcgRIIb (human); not shown: C-terminal His-tag
T5 sequence: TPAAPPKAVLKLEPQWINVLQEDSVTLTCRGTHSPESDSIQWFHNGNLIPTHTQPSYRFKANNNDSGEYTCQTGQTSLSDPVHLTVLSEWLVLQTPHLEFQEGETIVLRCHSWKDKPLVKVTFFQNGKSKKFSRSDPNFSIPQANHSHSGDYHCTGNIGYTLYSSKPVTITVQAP
Protocol: as §1

[6] = target: T6, cynomolgus monkey FcγRIIa1 extracellular domain, His-tagged (cynomolgus monkey); assay: SPR (BIACORE); KD of SG1 divided by KD of variant
T6 construct: also called cyno FcγRIIa1; cynoFcgRIIa1; not shown: C-terminal His-tag
T6 chain: T1 chain with T95P, A121T, S128A, P133H, N135D
Protocol: as §1

[7] = target: T7, cynomolgus monkey FcγRIIIaS extracellular domain, His-tagged (cynomolgus monkey, UniProt Q8SPW2 21-206 at identity 1.00)); assay: SPR (BIACORE); KD of SG1 divided by KD of variant
T7 construct: also called cyno FcγRIIIaS; cynoFcγRIIIaS; not shown: C-terminal His-tag
T7 chain: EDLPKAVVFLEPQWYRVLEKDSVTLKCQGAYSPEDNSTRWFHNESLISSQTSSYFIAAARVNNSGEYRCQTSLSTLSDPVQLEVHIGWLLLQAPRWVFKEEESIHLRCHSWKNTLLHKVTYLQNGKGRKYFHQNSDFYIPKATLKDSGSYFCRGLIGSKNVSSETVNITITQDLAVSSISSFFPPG
Protocol: as §1

[8] = target: T8, cynomolgus monkey FcγRIIa2 extracellular domain, His-tagged (cynomolgus monkey); assay: SPR (BIACORE); KD of SG1 divided by KD of variant
T8 construct: also called cyno FcγRIIa2; cynoFcgRIIa2; not shown: C-terminal His-tag
T8 chain: T1 chain with I127K, K130N, P133H, R142Q
Protocol: as §1

[9] = target: T1, cynomolgus monkey FcγRIIa3 …; assay: SPR (BIACORE); KD of SG1 divided by KD of variant
Protocol: as §1

T3 sequence (P08637 17-208 F176V): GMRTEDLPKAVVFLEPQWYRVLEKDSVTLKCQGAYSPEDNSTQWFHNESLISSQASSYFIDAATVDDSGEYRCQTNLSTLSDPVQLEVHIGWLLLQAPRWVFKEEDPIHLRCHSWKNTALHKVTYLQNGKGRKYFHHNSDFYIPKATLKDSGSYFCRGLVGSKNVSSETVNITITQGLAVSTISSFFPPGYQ

B1: MS_M103205H795-SG1/M103202L889-SK1 (antibody, human IgG1, kappa)
heavy: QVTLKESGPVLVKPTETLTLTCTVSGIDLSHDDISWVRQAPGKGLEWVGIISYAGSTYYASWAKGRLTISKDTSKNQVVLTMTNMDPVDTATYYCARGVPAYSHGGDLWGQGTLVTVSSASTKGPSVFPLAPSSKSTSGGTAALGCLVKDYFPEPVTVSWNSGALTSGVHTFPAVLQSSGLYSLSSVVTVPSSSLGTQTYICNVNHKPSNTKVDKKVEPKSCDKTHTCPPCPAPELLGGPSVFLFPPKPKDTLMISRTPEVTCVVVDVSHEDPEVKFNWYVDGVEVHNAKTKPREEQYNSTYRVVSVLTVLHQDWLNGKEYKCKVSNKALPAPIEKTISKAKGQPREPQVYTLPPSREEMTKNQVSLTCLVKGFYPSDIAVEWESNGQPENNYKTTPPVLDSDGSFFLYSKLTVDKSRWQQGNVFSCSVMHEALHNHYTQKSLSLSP
light: DIVMTQSPATLSLSPGERATLSCTSSQSVYHANWLSWFQQKPGQPPKLLIYWASTLAYGVPSRFSGSGSGTDFTLTISSLQPEDAATYYCAGGYGGGRYAFGQGTKVEIKRTVAAPSVFIFPPSDEQLKSGTASVVCLLNNFYPREAKVQWKVDNALQSGNSQESVTEQDSKDSTYSLSSTLTLSKADYEKHKVYACEVTHQGLSSPVTKSFNRGEC
notes: Parent antibody with heavy chain constant region SG1; also called MS1032LO06-SG1; copies: 2 + 2
Kd [1]: 17 µM
KD fold (SG1 = 1) [2]: 1 fold
KD fold (SG1 = 1) [3]: 1 fold
KD fold (SG1 = 1) [4]: 1 fold
KD fold (SG1 = 1) [5]: 1 fold
KD fold (SG1 = 1) [6]: 1 fold
KD fold (SG1 = 1) [7]: 1 fold
KD fold (SG1 = 1) [8]: 1 fold
KD fold (SG1 = 1) [9]: 1 fold

B5: M103205H795-MY445/M103202L889-SK1 (antibody, human IgG1, kappa)
heavy: QVTLKESGPVLVKPTETLTLTCTVSGIDLSHDDISWVRQAPGKGLEWVGIISYAGSTYYASWAKGRLTISKDTSKNQVVLTMTNMDPVDTATYYCARGVPAYSHGGDLWGQGTLVTVSSASTKGPSVFPLAPSSKSTSGGTAALGCLVKDYFPEPVTVSWNSGALTSGVHTFPAVLQSSGLYSLSSVVTVPSSSLGTQTYICNVNHKPSNTKVDKKVEPKSCDKTHTCPPCPAGELLTGPSVFLFPPKPKDTLMISRTPEVTCVVVDVSDEDPEVKFNWYVDGVEVHNAKTKPREEQYNSTYRVVSVLTVLHQDWLNGKEYKCKVSNKALPKPIEKTISKAKGQPREPQVYTLPPSREEMTKNQVSLTCLVKGFYPSDIAVEWESNGQPENNYKTTPPVLDSDGSFFLYSKLTVDKSRWQQGNVFSCSVMHEALHNHYTQKSLSLSP
light: B1 light
notes: copies: 2 + 2
Kd [1]: 14 µM
KD fold (SG1 = 1) [2]: 1.2 fold
KD fold (SG1 = 1) [3]: 0.1 fold
KD fold (SG1 = 1) [4]: 1.9 fold
KD fold (SG1 = 1) [5]: 1.1 fold
KD fold (SG1 = 1) [6]: 0.6 fold
KD fold (SG1 = 1) [7]: 0.1 fold
KD fold (SG1 = 1) [8]: 0.9 fold
KD fold (SG1 = 1) [9]: 1.2 fold

B8: M103205H795-MY443/M103202L889-SK1 (antibody, human IgG1, kappa)
heavy: B5 heavy with G234E
light: B1 light
notes: copies: 2 + 2
Kd [1]: 8.8 µM
KD fold (SG1 = 1) [2]: 1.3 fold
KD fold (SG1 = 1) [3]: 0.1 fold
KD fold (SG1 = 1) [4]: 1.5 fold
KD fold (SG1 = 1) [5]: 1.6 fold
KD fold (SG1 = 1) [6]: 0.7 fold
KD fold (SG1 = 1) [7]: 0.1 fold
KD fold (SG1 = 1) [8]: 1 fold
KD fold (SG1 = 1) [9]: 1.9 fold

B9: M103205H795-MY441/M103202L889-SK1 (antibody, human IgG1, kappa)
heavy: B5 heavy with G234A
light: B1 light
notes: copies: 2 + 2
Kd [1]: 8 µM
KD fold (SG1 = 1) [2]: 1.9 fold
KD fold (SG1 = 1) [3]: 0.1 fold
KD fold (SG1 = 1) [4]: 2 fold
KD fold (SG1 = 1) [5]: 1.6 fold
KD fold (SG1 = 1) [6]: 0.8 fold
KD fold (SG1 = 1) [7]: 0.1 fold
KD fold (SG1 = 1) [8]: 1.5 fold
KD fold (SG1 = 1) [9]: 2.1 fold

Binders with a lower Kd [1], results first:

Kd [1]: 6.8 µM
KD fold (SG1 = 1) [2]: 1.5 fold
KD fold (SG1 = 1) [3]: 0.2 fold
KD fold (SG1 = 1) [4]: 1.6 fold
KD fold (SG1 = 1) [5]: 2.6 fold
KD fold (SG1 = 1) [6]: 0.7 fold
KD fold (SG1 = 1) [7]: 0.2 fold
KD fold (SG1 = 1) [8]: 1.2 fold
KD fold (SG1 = 1) [9]: 2.5 fold
B4: M103205H795-MY442/M103202L889-SK1 (antibody, human IgG1, kappa)
heavy: B5 heavy with G234D
light: B1 light
notes: copies: 2 + 2

Kd [1]: 4.8 µM
KD fold (SG1 = 1) [2]: 3.3 fold
KD fold (SG1 = 1) [3]: 0.2 fold
KD fold (SG1 = 1) [4]: 3.1 fold
KD fold (SG1 = 1) [5]: 2.1 fold
KD fold (SG1 = 1) [6]: 1.5 fold
KD fold (SG1 = 1) [7]: 0.2 fold
KD fold (SG1 = 1) [8]: 2.7 fold
KD fold (SG1 = 1) [9]: 3.5 fold
B2: M103205H795-MY265/M103202L889-SK1 (antibody, human IgG1, kappa)
heavy: B5 heavy with G234P
light: B1 light
notes: also called MS103205H795-MY265; copies: 2 + 2

Kd [1]: 4.7 µM
KD fold (SG1 = 1) [2]: 2.7 fold
KD fold (SG1 = 1) [3]: 0.1 fold
KD fold (SG1 = 1) [4]: 2.6 fold
KD fold (SG1 = 1) [5]: 1.9 fold
KD fold (SG1 = 1) [6]: 1.3 fold
KD fold (SG1 = 1) [7]: 0.1 fold
KD fold (SG1 = 1) [8]: 2.3 fold
KD fold (SG1 = 1) [9]: 3.6 fold
B6: M103205H795-MY446/M103202L889-SK1 (antibody, human IgG1, kappa)
heavy: B5 heavy with G234H
light: B1 light
notes: copies: 2 + 2

Kd [1]: 1.9 µM
KD fold (SG1 = 1) [2]: 6.3 fold
KD fold (SG1 = 1) [3]: 0.3 fold
KD fold (SG1 = 1) [4]: 6 fold
KD fold (SG1 = 1) [5]: 6.2 fold
KD fold (SG1 = 1) [6]: 2.7 fold
KD fold (SG1 = 1) [7]: 0.2 fold
KD fold (SG1 = 1) [8]: 4.6 fold
KD fold (SG1 = 1) [9]: 6.9 fold
B3: M103205H795-MY444/M103202L889-SK1 (antibody, human IgG1, kappa)
heavy: B5 heavy with G234F
light: B1 light
notes: copies: 2 + 2

Kd [1]: 1.05 µM
KD fold (SG1 = 1) [2]: 7.1 fold
KD fold (SG1 = 1) [3]: 0.2 fold
KD fold (SG1 = 1) [4]: 7.8 fold
KD fold (SG1 = 1) [5]: 10.5 fold
KD fold (SG1 = 1) [6]: 3.2 fold
KD fold (SG1 = 1) [7]: 0.5 fold
KD fold (SG1 = 1) [8]: 5.3 fold
KD fold (SG1 = 1) [9]: 11.3 fold
B7: M103205H795-MY447/M103202L889-SK1 (antibody, human IgG1, kappa)
heavy: B5 heavy with G234I
light: B1 light
notes: copies: 2 + 2
